Patent publication US20230303690A1 (published 2023)
Numbering of substitutions follows the chain as printed. Read-outs that look alike come from different tables or passages of the source. Values belong to the binder of their own block, whether it stands above or below them.

Experiments:
[1] = target: T1, LAG3 Protein, Human, Recombinant (His Tag) (Sino Biological Catalog No. 16498-H08H) (human, UniProt P18627 23-450); assay: ELISA, coated hLAG3-His
T1 construct: Bought protein; also called hLAG3-His; LAG3-His; not shown: His tag
T1 sequence (looked up): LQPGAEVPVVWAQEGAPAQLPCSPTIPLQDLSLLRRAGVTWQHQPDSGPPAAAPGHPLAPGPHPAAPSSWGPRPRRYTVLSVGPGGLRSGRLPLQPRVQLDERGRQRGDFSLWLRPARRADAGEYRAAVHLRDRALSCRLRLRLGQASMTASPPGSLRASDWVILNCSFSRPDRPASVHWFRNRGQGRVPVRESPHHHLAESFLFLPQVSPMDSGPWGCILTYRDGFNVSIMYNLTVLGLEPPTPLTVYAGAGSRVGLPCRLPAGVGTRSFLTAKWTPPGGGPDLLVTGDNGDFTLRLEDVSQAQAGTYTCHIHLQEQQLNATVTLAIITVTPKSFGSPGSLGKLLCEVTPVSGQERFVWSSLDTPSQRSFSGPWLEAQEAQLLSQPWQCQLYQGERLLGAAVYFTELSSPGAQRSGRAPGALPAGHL
Description: (§1) Plates were coated with 100 µL per well of Coating Solution, and then covered, and incubated overnight (12-18 hours) at 2-8° C. The wells were aspirated and washed 1 time with >200 µL of Wash buffer per well, inverted and tapped on absorbent paper to remove excess liquid. The plates were blocked with 200 µL per well with Blocking buffer (1×PBS+4% milk) for 1 hour at room temperature, aspirated, inverted, and tapped on absorbent paper to remove excess liquid. Standards and sample dilutions were prepared in Blocking buffer. 100 µL of standards (in duplicate) and samples were pipetted into designated wells. After incubation for 1 hour at room temperature with gentle continual shaking (~500 rpm), the wells were aspirate and washed 3 times with >200 µL of Wash buffer per well, inverted and tapped on absorbent paper to remove excess liquid.
(§2) The primary antibody solution was diluted with Blocking buffer. See Table 14 for recommended primary antibody dilution. 100 µL of the primary antibody solution was added into each well and incubated for 2 hours at room temperature with gentle continual shaking (~500 rpm). The wells were aspirated and washed 3 times with >200 µL of Wash buffer per well, inverted and tapped on absorbent paper to remove excess liquid. The working solution of secondary antibody was made with Blocking buffer by diluting the secondary antibody by 2,500 times. 100 µL of secondary antibody working solution was added into each well and incubated for 30 minutes at room temperature. The wells were aspirated and washed 5 times with >200 µL of Wash buffer per well, inverted and tapped on absorbent paper to remove excess liquid. 100 µL of TMB substrate solution (Biopanda, TMB-S-004) was added to each well and incubated for 30 minutes at room temperature. 100 µL of Stop solution (Solarbio, C1058) was added to each well.

[2] = target: T2, human LAG3 expressed on cells (human, UniProt P18627 23-525); assay: cell ELISA, 293T-hLAG3 cells
T2 construct: whole, on cells
T2 sequence (looked up): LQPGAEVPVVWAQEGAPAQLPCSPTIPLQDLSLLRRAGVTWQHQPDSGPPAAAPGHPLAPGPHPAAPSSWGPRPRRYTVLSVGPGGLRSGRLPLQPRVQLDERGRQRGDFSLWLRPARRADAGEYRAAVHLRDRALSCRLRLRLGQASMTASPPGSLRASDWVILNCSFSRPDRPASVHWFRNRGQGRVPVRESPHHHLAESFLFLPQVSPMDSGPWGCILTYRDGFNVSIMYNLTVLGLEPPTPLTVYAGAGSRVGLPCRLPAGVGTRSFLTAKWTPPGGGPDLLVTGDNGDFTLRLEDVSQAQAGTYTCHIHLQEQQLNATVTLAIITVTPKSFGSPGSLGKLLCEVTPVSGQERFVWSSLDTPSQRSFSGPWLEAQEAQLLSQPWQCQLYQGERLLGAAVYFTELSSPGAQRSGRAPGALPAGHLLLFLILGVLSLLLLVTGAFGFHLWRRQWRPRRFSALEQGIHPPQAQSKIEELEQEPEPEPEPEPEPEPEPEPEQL
Description: Each well was treated with stimulants. The cells were then fixed and blocked with Blocking buffer. The Primary antibodies were added. The wells were washed and a HRP-conjugated secondary antibody was added. The wells were washed with 1x PBS and a solution containing TMB (Biopanda, TMB-S-004) was added. The TMB reacted with HRP to change the color thereof from colorless to blue. An acid stop solution (Solarbio, C1058) was then added to stop the reaction and change the blue color to yellow.
Materials are listed below: [0072] […] 2) Blocking buffer: 1×PBS+3% BSA (Sigma, B2064); [0074] […] [0075] 4) Secondary antibody: Goat anti-human IgG1 Fc antibody, HRP (1:2500, invitrogen, A18817). [0076]

[3] = target: T1, LAG3 Protein, Human, Recombinant (His …); assay: ELISA, coated hLAG3-His; remark: listed apart in the source
Description: as §1
as §2, with “well. Absorbance at 450 nm was measured within 30 minutes of adding Stop solution. Results were calculated using a log-log or 4-parameter curve fit.” for “well.”

[4] = target: human LAG3 expressed on cells (human) (UniProt P18627); assay: cell ELISA, 293T-LAG3 cells
[5] = target: T1, LAG3 Protein, Human, Recombinant (His …); assay: SPR (Biacore), sdAb captured by anti-human Fc, LAG3-His analyte
Description: The binding of the single domain antibodies to recombinant human LAG3 protein (rhLAG3) was examined by Biacore™ assay. […] The coating was carried out according to the manufacturer’s instructions accompanying the kit (Catalog No. BR-1008-39, GE). […] The chip surface was regenerated after each cycle with 25 mM NaOH followed by HBS-EP wash provided in the kit.

B1: sdAb No. 27-H1 (VHH)
VHH: QVQLVESGGGLVQPGGSLRLSCAASGFTLDYYAIGWFRQAPGKEREGVSCIRSSDASTYYADSVKGRFTISSDNTKNTVYLQMNSLKPEDTAVYYCATDRYSDCRGPYENWGQGTQVTVSS
notes: Modified sdAb No. 27 (CDR2 DG to DA); not shown: Fc part implied by anti-human IgG1 Fc detection
EC50 [1]: 3.28 nM | OD450 at 0.004572 ug/ml [1]: 0.04 | OD450 at 0.013717 ug/ml [1]: 0.043 | OD450 at 0.041152 ug/ml [1]: 0.063 | OD450 at 0.123457 ug/ml [1]: 0.36 | OD450 at 0.37037 ug/ml [1]: 1.42 | OD450 at 1.111111 ug/ml [1]: 1.8 | OD450 at 3.333333 ug/ml [1]: 2 | OD450 at 10 ug/ml [1]: 1.95 | EC50 [2]: 1.4 nM | OD450 at 0.0045725 ug/ml [2]: 0.076 | OD450 at 0.0137174 ug/ml [2]: 0.171 | OD450 at 0.0411523 ug/ml [2]: 0.359 | OD450 at 0.1234568 ug/ml [2]: 0.719 | OD450 at 0.3703704 ug/ml [2]: 1.08 | OD450 at 1.111111 ug/ml [2]: 1.17 | OD450 at 3.333333 ug/ml [2]: 1.24 | OD450 at 10 ug/ml [2]: 1.33

B3: sdAb No. 17-H5 (VHH)
VHH: QLQLVESGGGLVQPGGSLRLSCAASGLTLDAYAIGWFRQAPGKEREGLACISGSDASTHYLDSVKGRFTISRDNGKNTMALQMNSLQFGDTAIYYCAARRGSCSGSWTYWGQGTQVTVSS
notes: Modified sdAb No. 17 (CDR1 and CDR2 DG to DA); not shown: Fc part implied by anti-human IgG1 Fc detection
EC50 [1]: 1.19 nM

B4: sdAb No. 25-B5 (VHH)
VHH: QVQLVESGGGLVKPGGSLRLSCAASGSIESFSFMGWYRQAPGKQREWVAGFTGAASLSFSTYTDAVKGRFTISRDNAKNSLYLQMNSLRAEDTAVYYCNVDPWSQSWPGRYWGQGTTVTVSS
notes: Humanized sdAb No. 25; not shown: Fc part implied by anti-human IgG1 Fc detection
EC50 [3]: 452 nM | OD450 at 0.061 nM [3]: 0.036 | OD450 at 0.1829 nM [3]: 0.04 | OD450 at 0.5487 nM [3]: 0.038 | OD450 at 1.6461 nM [3]: 0.048 | OD450 at 4.9383 nM [3]: 0.062 | OD450 at 14.815 nM [3]: 0.084 | OD450 at 44.445 nM [3]: 0.114 | OD450 at 133.335 nM [3]: 0.163 | OD450 at 0.122 nM [4]: 0.086 | OD450 at 0.366 nM [4]: 0.113 | OD450 at 1.097 nM [4]: 0.124 | OD450 at 3.292 nM [4]: 0.196 | OD450 at 9.877 nM [4]: 0.21 | OD450 at 29.63 nM [4]: 0.254 | OD450 at 88.89 nM [4]: 0.311 | OD450 at 266.67 nM [4]: 0.608

B6: sdAb No. 8 (VHH)
VHH: QLQLVESGGGLVQPGGSLRLSCAASGFTLDYYAIGWFRQAPGKEREGVSCISSSDGSTYYADSVKGRFTISRDNAKNTVYLQMNSLKPEDTAIYYCARDSLSGSGYGCRGPYDYWGQGTQVTVSS
notes: Fc of the tested form not described; not shown: Fc part implied by anti-human Fc capture
Kd [5]: 0.347 nM | koff [5]: 0.000277 s⁻¹ | kon [5]: 797000 M⁻¹ s⁻¹

Results, then the binder that gave them:

EC50 [1]: 3.73 nM | OD450 at 0.004572 ug/ml [1]: 0.038 | OD450 at 0.013717 ug/ml [1]: 0.043 | OD450 at 0.041152 ug/ml [1]: 0.063 | OD450 at 0.123457 ug/ml [1]: 0.334 | OD450 at 0.37037 ug/ml [1]: 1.43 | OD450 at 1.111111 ug/ml [1]: 1.96 | OD450 at 3.333333 ug/ml [1]: 2.08 | OD450 at 10 ug/ml [1]: 2.27 | EC50 [2]: 1.55 nM | OD450 at 0.0045725 ug/ml [2]: 0.075 | OD450 at 0.0137174 ug/ml [2]: 0.152 | OD450 at 0.0411523 ug/ml [2]: 0.314 | OD450 at 0.1234568 ug/ml [2]: 0.626 | OD450 at 0.3703704 ug/ml [2]: 1.07 | OD450 at 1.111111 ug/ml [2]: 1.16 | OD450 at 3.333333 ug/ml [2]: 1.14 | OD450 at 10 ug/ml [2]: 1.2
B2: sdAb No. 27-H2 (VHH)
VHH: B1 VHH with D55E, A56G
notes: Modified sdAb No. 27 (CDR2 DG to EG); not shown: Fc part implied by anti-human IgG1 Fc detection

OD450 at 0.061 nM [3]: 0.037 | OD450 at 0.1829 nM [3]: 0.039 | OD450 at 0.5487 nM [3]: 0.037 | OD450 at 1.6461 nM [3]: 0.044 | OD450 at 4.9383 nM [3]: 0.053 | OD450 at 14.815 nM [3]: 0.069 | OD450 at 44.445 nM [3]: 0.085 | OD450 at 133.335 nM [3]: 0.128 | OD450 at 0.122 nM [4]: 0.056 | OD450 at 0.366 nM [4]: 0.07 | OD450 at 1.097 nM [4]: 0.095 | OD450 at 3.292 nM [4]: 0.166 | OD450 at 9.877 nM [4]: 0.306 | OD450 at 29.63 nM [4]: 0.399 | OD450 at 88.89 nM [4]: 0.888 | OD450 at 266.67 nM [4]: 1.47
B5: sdAb No. 25-B6 (VHH)
VHH: B4 VHH with V2L, L81V
notes: as for B4
